US20090186415A1, “METHOD FOR PRODUCTION OF CYTOCHROME P450 WITH N-TERMINAL TRUNCATED P450 REDUCTASE” (priority 2006, published 2009)

T1: human CYP1B1 (Homo sapiens, UniProt Q16678)
T1 construct: made in house; host or cells: Saccharomyces cerevisiae JL20 / W303B and derived strains; microsomes
T1 sequence (Q16678 with tags, fused parts or gaps): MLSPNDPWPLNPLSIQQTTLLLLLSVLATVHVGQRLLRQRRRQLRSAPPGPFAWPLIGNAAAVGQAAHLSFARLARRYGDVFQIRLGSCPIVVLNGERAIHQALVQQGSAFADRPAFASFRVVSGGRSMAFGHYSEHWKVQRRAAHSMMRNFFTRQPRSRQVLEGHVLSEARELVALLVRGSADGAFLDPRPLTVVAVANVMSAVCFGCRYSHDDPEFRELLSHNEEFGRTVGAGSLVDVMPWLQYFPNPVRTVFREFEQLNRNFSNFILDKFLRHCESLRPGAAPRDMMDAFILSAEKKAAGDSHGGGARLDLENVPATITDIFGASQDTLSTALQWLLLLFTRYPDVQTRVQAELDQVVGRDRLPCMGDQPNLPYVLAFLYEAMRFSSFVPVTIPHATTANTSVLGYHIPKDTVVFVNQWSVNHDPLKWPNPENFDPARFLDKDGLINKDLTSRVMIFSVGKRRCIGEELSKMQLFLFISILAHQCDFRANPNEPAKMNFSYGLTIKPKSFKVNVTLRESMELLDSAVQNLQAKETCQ

B1: ΔN24hRD: human P450 reductase variant lacking the charged N-terminal 24 amino acids (SEQ ID NO: 26) (protein)
chain: MTDMILFSLIVGLLTYWFLFRKKKEEVPEFTKIQTLTSSVRESSFVEKMKKTGRNIIVFYGSQTGTAEEFANRLSKDAHRYGMRGMSADPEEYDLADLSSLPEIDNALVVFCMATYGEGDPTDNAQDFYDWLQETDVDLSGVKFAVFGLGNKTYEHFNAMGKYVDKRLEQLGAQRIFELGLGDDDGNLEEDFITWREQFWPAVCEHFGVEATGEESSIRQYELVVHTDIDAAKVYMGEMGRLKSYENQKPPFDAKNPFLAAVTTNRKLNQGTERHLMHLELDISDSKIRYESGDHVAVYPANDSALVNQLGKILGADLDVVMSLNNLDEESNKKHPFPCPTSYRTALTYYLDITNPPRTNVLYELAQYASEPSEQELLRKMASSSGEGKELYLSWVVEARRHILAILQDCPSLRPPIDHLCELLPRLQARYYSIASSSKVHPNSVHICAVVVEYETKAGRINKGVATNWLRAKEPVGENGGRALVPMFVRKSQLRLPFKATTPVIMVGPGTGWHPFIGFIQERAWLRQQGKEVGETLLYYGCRRSDEDYLYREELAQFHRDGALTQLNVAFSREQSHKVYVQHLLKQDREHLWKLIEGGAHIYVCGDARNMARDVQNTFYDIVAELGAMEHAQAVDYIKKLMTKGRYSLDVWS
modifications: /note = delta-N24hRD human P450 reductase
B2: ΔN24hRD-cmyc: human P450 reductase lacking N-terminal 24 amino acids, with C-terminal c-myc epitope tag (SEQ ID NO: 27) (protein)
chain: MTDMILFSLIVGLLTYWFLFRKKKEEVPEFTKIQTLTSSVRESSFVEKMKKTGRNIIVFYGSQTGTAEEFANRLSKDAHRYGMRGMSADPEEYDLADLSSLPEIDNALVVFCMATYGEGDPTDNAQDFYDWLQETDVDLSGVKFAVFGLGNKTYEHFNAMGKYVDKRLEQLGAQRIFELGLGDDDGNLEEDFITWREQFWPAVCEHFGVEATGEESSIRQYELVVHTDIDAAKVYMGEMGRLKSYENQKPPFDAKNPFLAAVTTNRKLNQGTERHLMHLELDISDSKIRYESGDHVAVYPANDSALVNQLGKILGADLDVVMSLNNLDEESNKKHPFPCPTSYRTALTYYLDITNPPRTNVLYELAQYASEPSEQELLRKMASSSGEGKELYLSWVVEARRHILAILQDCPSLRPPIDHLCELLPRLQARYYSIASSSKVHPNSVHICAVVVEYETKAGRINKGVATNWLRAKEPVGENGGRALVPMFVRKSQLRLPFKATTPVIMVGPGTGWHPFIGFIQERAWLRQQGKEVGETLLYYGCRRSDEDYLYREELAQFHRDGALTQLNVAFSREQSHKVYVQHLLKQDREHLWKLIEGGAHIYVCGDARNMARDVQNTFYDIVAELGAMEHAQAVDYIKKLMTKGRYSLDVWSSSEQKLISEEDLNGSRL
modifications: C-terminal c-myc tag; /note = delta-N24hRD-cmyc tag human P450 reductase
B3: 675 bp GAL1p: truncated 675 bp yeast GAL1 promoter (SEQ ID No. 2) (nucleic acid)
DNA: CTTGAATTTTCAAAAATTCTTACTTTTTTTTTGGATGGACGCAAAGAAGTTTAATAATCATATTACATGGCATTACCACCATATACATATCCATATACATATCCATATCTAATCTTACTTATATGTTGTGGAAATGTAAAGAGCCCCATTATCTTAGCCTAAAAAAACCTTCTCTTTGGAACTTTCAGTAATACGCTTAACTGCTCATTGCTATATTGAAGTACGGATTAGAAGCCGCCGAGCGGGTGACAGCCCTCCGAAGGAAGACTCTCCTCCGTGCGTCCTCGTCTTCACCGGTCGCGTTCCTGAAACGCAGATGTGCCTCGCGCCGCACTGCTCCGAACAATAAAGATTCTACAATACTAGCTTTTATGGTTATGAAGAGGAAAAATTGGCAGTAACCTGGCCCCACAAACCTTCAAATGAACGAATCAAATTAACAACCATAGGATGATAATGCGATTAGTTTTTTAGCCTTATTTCTGGGGTAATTAATCAGCGAAGCGATGATTTTTGATCTATTAACAGATATATAAATGCAAAAACTGCATAACCACTTTAACTAATACTTTCAACATTTTCGGTTTGTATTACTTCTTATTCAAATGTAATAAAAGTATCAACAAAAAATTGTTAATATACCTCTATACTTTAACGTCAAGGAGAAAAAACCCC
modifications: /note = Positive strand of the 675 bp GAL1 promoter

Legend:
[1] = test system: human NADPH P450 reductase; assay: MTT-based cytochrome P450 reductase assay, hRD variants in yeast microsomes and cytosolic fractions; type: biochemical; conditions: for microsome bound reductase activity: microsomes; for microsome bound reductase activity / cytosolic reductase activity: LEU2 locus of W303B; for cytosolic reductase activity: soluble cytosolic fraction
Description: Microsomes from the different yeast strains were prepared as described in Example 1.15. About 100 μg of microsomes, as measured by the Bio-Rad Bradford assay, were used and the increase in MTT reductase activity was followed over a time period of 400 seconds.
The different yeast strains were grown up in YPGE medium as described in Example 1.15. The cells were harvested and centrifuged to a pellet. 10% of cell pellets were re-suspended in 1 ml of buffer B (10 mM Tris-Cl pH7.5, 2 M Sorbitol, 0.1 mM EDTA pH8.0, 1 mM Pefabloc, 0.1 mM DTT) and re-suspended cells were treated with lyticase (3-5 units/O.D. of cells; 2200 units/mg; Sigma) for about an hour. The yeast cell wall was enzymatically removed using lyticase, the pellets were centrifuged and washed twice with ice cold PBS, finally re-suspended in 1 ml PBS. About 0.5 ml of glass beads were added to the suspension and the cells were vortexed three times with a 5 min interval on ice after each vortexing. The cells lysates were directly used for the MTT-based reductase assay. Equal amount of cells lysates (100 μg, as measured by the Bio-Rad Bradford assay) were used and the increase in MTT reductase activity was followed, as above, over a time period of 400 seconds.
The enzyme NADPH-cytochrome P450 reductase mediates the transfer of electrons from NADPH to cytochrome P450, other microsomal proteins and cytochrome c. It also catalyzes the reduction of many drugs and other compounds such as potassium ferricyanide, 2,6-dichloroindopheonl, 1,1-diphenyl-2-picrylhydrazyl (DPPH), and mitomycin c. Tetrazolium salts are used extensively in cell proliferation and cytotoxicity assays, enzyme assays, histochemical procedures and bacteriological screening. […] The compound 3-(4,5-dimethylthiazol-2-yl)-2,5-diphenyltetrazolium bromide (MTT) is a monotetrazolium salt. The reduction of MTT is one of the most frequently used methods for measuring cell proliferation and cytotoxiciy. Reduction of MTT by P450 reductase has been assessed as a method for monitoring yeast produced recombinant P450 reductase activity and the protocol was developed on the procedure published by Yim S-K, et al (Yim S-K., Y. C.-H. Ahn T., Hung H—C and Pan J-G. A continuous Spectrophotometric assay for NADPH-cytochrome P450 reductase activity using 3-(4,5 Dimethylthiazol-2-yl)-2,5-diphenyltetrazolium Bromide. Journal of Biology and Molecular Biology 38: 366-369, 2005). The principal advantage of this substance is that the reduction of MTT can be assayed directly in the reaction medium by a continuous spectrophotometirc method. The electrons released from NADPH by P450 reductase are transferred to MTT, and then the amounts of reduced MTT is assessed spectrophotometrically by measuring the increase in A610 values that is due to the formation of blue formazan. The extinction coefficient of MTT is 11.3 mM^−1 cm^−1. This method offers the advantages of short analysis time with the use of a relatively cheap commercial substrate. The classical assay uses recombinant cytochrome c as a substrate.
Disposable cuvettes were used for this experiment. 850 μl of potassium phosphate buffer was added to a cuvette. […] The cuvette was quickly placed into the spectrophotometer together with the blank cuvette and its contents (that contained all components as in the other test cuvette but not the microsomes or cell supernatant) and the increase in the values at 610 nm was measured for a time period of 400 seconds. […]

human CYP1B1 = target: T1, human CYP1B1; assay: Determination of P450 amounts via CO-difference spectra (CYP1B1 in yeast microsomes); conditions: strains JL20 and W303B with only endogenous yeast P450 reductase, average of 3 observations
Description: Determination of P450 amounts via CO-difference spectra: Difference spectra of microsomal preparations were measured in a spectrophotometer (Lambda 16, Perkin Elmer) using plastic disposable cuvettes. 850 μl of a solution containing 100 mM potassium phosphate and 20% glycerol (pH7.5) was added to the cuvette, and left for one minute. Then a ‘few grains’ of sodium hydrosulfite was added, mixed gently to prevent any bubble forming in the cuvette and left for another minute. 150 μl of mirosomes were added into the cuvette and the whole suspension was mixed gently. Two cuvettes (one containing sodium hydrosulphite without microsome and the other with microsome) were prepared and a baseline of light absorption of the buffer and microsome mixture was recorded in the dual-beam spectrophotometer from 400 nm to 500 nm. Carbon monoxide was bubbled slowly into one sample cuvette for about one minute, 1 bubble/second. Light absorption was recorded again from 400 nm to 500 nm. The concentration of cytochrome P450 in the cuvette was calculated from the absorption change at 450 nm relative to the absorbance change at 490 nm, using the formula below: […]

Row | Molecule | microsome bound reductase activity [1] | cytosolic reductase activity [1] | P450 reductase activity (MTT reduction) ([1]; microsomal and soluble (cytosolic) fractions, hRD variants in W303B) | Expression of CYP1B1 (amounts of P450 produced) from GAL promoter variants (human CYP1B1) | Expression of CYP1B1 (amounts of P450 produced) from GAL promoter variants (human CYP1B1; listed as 675 bp GAL1 promoter)
1 | B1 | minimal | most of the activity of ΔN24hRD exists in the soluble cytosolic part of the cell |  |  | 
2 | B2 | superior in its reductase activity than the wild type full-length protein | also higher | much more potent in reductase activity than ΔN24hRD |  | 
3 | B3 |  |  |  | the best | the best expression
